Measured values reported in a protein production outcome set (Wang et al. 2014).

Assay: label from the status in PepcDB records

MSEKPWVSTQPLVTKRGLPLNIDRDIAYRPASAVSLSEVAQFITRETGLPVVVAPDALNPSILSSRPGNSGAAAAPPAVTMSNPDNLAALMPTGLAGSLPSGARSLESELLSGTPGLISGIKFSGPVSALLNQVTSRLGLSWHYDPQLQGARITYFDTRTFDVWAFGDDQVIESVVKSGLITSTGSGSNGSGGTSSGTGASGDSGSNQSTTVQIKTSLLSDIENNVKAMLSTQPAGRIFLSRSTGTLTVSDRPEVLNRIASYLQSTNRNITRQVLFNVKIFEVNFTDRDQTAVNWKAVYKSVSGRWGLSLANKVAGISTDAISGSVSILDTSSSPWAGSSAVIQALSEQGRISDVRSPSITTLNLQPAPIQIGNVKSYVASSSTTTTASVGSSTSLTPATITSGFNMMLLPKIIDRDNMLLMISISMSSKPTFTTFTSNGSSVQTADFDTKNAAPKVLLRSGQTLVLTGFEENTENADKTGVGDASFFGLGGSRTRSSLEHHHHHH
protein production: failed

MNFKKLSNAKVSVMAVVLSVGILSGYSALNKQVTLVVRGEERTISTFSSNVGDLLESQNISYDANDIVTLDENTKLSNGDKIEVIDVKEKTVVETKDIPFEVTVVEDGSLLKGDSKVKEEGKSGKSELIYKETYHNGKKVEKEFVKKVVKAEPVNKVVSKGTKVEMQVASSRGESSRRMASSSSSSSSSNNGKNMRVVATAYTGHSITATGTKPKWGTIAVDPKVIPYGTKVYIPQFDMVFTAEDCGGAIKGNKIDIYMNDSKTVYNWGRKTIDIRILK
protein production: failed

MAKLVTENISKRFKNQDVLKHINITLENNEVYGLLGINGAGKTTLMKIICGILQQDSGEIKLDNRPMTRNDLHKVGSLIETPATYNHLSAQDNLKIVCLNESVDFSEINSVLSLVNLNVDKKKKVKDFSLGMKQRLGIAMALIKKPEILVLDEPSNGLDPYGIQELRELLKLLTEQGTSIIISSHILSEIQVLADHIGIIHEGELKYQQRNNKDENLEEIFFKITKGDYK
protein production: failed

MNRQLLLDVLPAPAPALNNYIAGPNGQALAAAHALTAGRAIYLWGPAGCGRTHLLRGLSARPEAIYIDAARAAQSLRELAEADSTAPMPRLVAVDDVHRMDDARQAGLFALYNRWRESAATGRAFALAVSGDRAPMSLPLREDLRTRLGWDLVFRLDPLSDADKLAALTAQAAERGLQLAPEVINWMLTHHERDIRKLAALLDALDRYSLATGRPITIPLLRAMLADPHSQATLEHHHHHH
protein production: not failed

MMRTGFQGVARLVHHKALYRSPQTLPRLHLASAFGSSTDSLVARFCGEKTDLKDYALPNASWCPDMLSLYQEFLEKTKSGSWVKLPSFKSNRDHIRGLKLPFGLVAASDKQDWRLFTRSIQLEGQGYEYVIFFHPSEKKSVCLFQPGPYLEGAPGFAHGGSLAALMDETYSKTAYLAGEGLFTLSFNIKFKNLIPVGSLAVLDLQVEKIEDQKLYMSCIAQSRDKQTVYAKSSGVFLQLQLEEEQSGEQ
protein production: failed

MEKVKKIVLIGASGFVGSALLNEALNRGFEVTAVVRHPEKIKIENEHLKVKKADVSSLDEVCEVCKGADAVISAFNPGWNNPDIYDETIKVYLTIIDGVKKAGVNRFLMVGGAGSLFIAPGLRLMDSGEVPENILPGVKALGEFYLNFLMKEKEIDWVFFSPAADMRPGVRTGRYRLGKDDMIVDIVGNSHISVEDYAAAMIDELEHPKHHQERFTIGYLEHHHHHH
protein production: failed

MILTVGNTKGGVGKTTLAVNLAVERFLAGKDVLLIDADNQRTSSAFSALRESLHGQTGYTCIELSGSAVHQQGRNLAPKYDEVIIDVGGRDTSALRGALAISDIALVPFAVGTFDIWAAEDIGRLIEEARGFNPTLRAFSVLNMADPAGGDNADAAGLLTETSALVYLRASLVRRKAMRNAAAAGLGVLEMTGSSRDSKACGEVGYLAELLYNKLNLEHHHHHH
protein production: failed

MTETKPRIAIRYCTQCNWLLRAGWMAQEILQTFASDIGEVSLIPSTGGLFEITVDGTIIWERKRDGGFPGPKELKQRIRDLIDPERDLGHVDRTKHEGLDT
protein production: not failed

MKRAYKIEINPTDDQKSKIHQTIGVSRFIYNFYIAHNKEIYEKEGKFVSGMDFSKWLNNEYIPNNQDKKWIKEVSSKATKQAIMNGDKAFKDFFKKAKGFPRFKKKKNQDVKAYFPKNNKTDWTLERHRVKIPTLGWVRLKEFGYIPKNSVVKSGTVSQKADRYYVSILVEETYIKISNPNNEGLGIDLGIKEFAICSNGNKFKNINKTSTVKKIEKKLKREQRKLSRKYESLKIRNKNIKEGRATRQNIQKQVVKVQRLHQRLANIRTDYINKTVFSIVKQKPSYITIEDLAVSNMMKNKHLSKAISSQKFFEFKTKLMSKCKQNNIELRIVDRFYPSSKTCSNCGKIKKDLKLSDRIYKCDCGFTIDRDLNASINLKNAKEYKIA
protein production: failed

MVEHIFKRDGHAEKFQPYKIEDAIKKAFESVNVRYDDRIYTNVILAIESENLNSVECIQDRIELEFFKAGYFAVMKSFMNYRFLHKMQREHIYGLSEDTTYVNSTQSVEEYINKEDWRINANANTGYSNAGLVNNLAGKLIANYWLDKVYSKEEGYAHRNGDVHIHDLDCLTGYCAGWSLRSLLNEGFNGVRGRVESRAPKHLREALGQMANFLGILQSEWAGAQAFSSFDTYLAPYVFRDQLEFKEIKKAIKSFVYNLNVPARWGQSPFTNVTIDWTVPADLKDQIPTRNDRHLFEDIQEDALLVQEAQKRGASSLLSMTYKYFQAEMNLINRAFYEVMTEGDKTGQPFTFPIPTVNITEDFDWHGENTDLLFENTAKIGSSYFQNFIGSQYIRNEKGELVENPEAYKPNAVRSMCCRLQLDLRELLKRGGGLFGSAEMTGSIGVVTLNMARLGYRFRGDREGLMAELTKLMDLSKSTLEKKRQAVTELFHRGLYPYTKRYLPGFNNHFSTIGVNGINEMIRNFTNDQDNISSPSGMAFATEILEFMRERIRSYQEETGNLYNLEATPAEGTTYRFAKEDKKRYPQIIQAGMEENVYYTNSSQLPANFTDDPFEALTLQDELQCKYTGGTVLHLYMREKISSAEACRKLVKTVITSYKLPYITITPVFSVCPKHGYLRGEHEYCPLCDEEALLEIEQSQCC
protein production: failed

MSKNIGLNAIEMSYLRQSLSLSAAQVGQLTNHSEAEVLAWENAETQAPELAQKKLLDIDDIIEMQVLNTTDGIEALFKKEPKRHLAFVVYPTQAIYTQYNPEFLSSLPLTELYNTAAWRIKKECKLVLEVDVSLINLNVEAYKAYREQNGLSESRESRAKWAATQL
protein production: not failed

TEETAKVVPMAVITPAINQLTDQEKAEGWALLFDGKTTKGWRGAHKDAFPDHGWMVKDGELIVQKSDGSESTNGGDIVTEGEYSAFEFSVDFKITEGANSGIKYFVTEQEKQKGSAYGLEFQLLDDAKHPDAKLYTTFPGSRTLGSLYDLKKSENIHFNGVGEWNTAVVKVFPNNHVEHWLNGVKVLEYERGSKEFRDLVKGSKYADPSYNAGGAFGEAPKGHILLQDHGDEVAFRNIKVKELK
protein production: not failed

MTFPSVALVVVYVGGLVILGFGMAKIVYVPMALYFDWLYRSICARHRYSVLSDRPLVSVIVPGYNEAVVITGCVESILASRYLRLEVILVDDGSTDETASIMEGLAQQYDRVRFLSQANAGKGAALNCGIAAALGDILMFVDADGVFAPDTLIHMLEGFDDPKVGAVCGDDRPVNLDRLQTMMLAILSHVGTGLVRRALSLMNCLPIVSGNIGAFRSDLVRELGGFHEDTLGEDLELTWRVYKAGYRVRFQPKALVYAESPSTMGGLWRQRVRWSRGLLQTLRLHSGMLGSRRYGMFGAFLVFNAITMVLIPILQLVVLALLPFLYVAGMGPVPAEVLAILGWLGVFVSLALIVFSVGLNRSWRDLRFLWTLPLWPFYSVFVGLALASAIVKEIRGSPARWNKLQRTGIKSVTATHSVTSTDVSQRQEAHA
protein production: failed

MRINPGEITKVLEEKIKSFEEKIDLEDTGKVIQVGDGIARAYGLNKVMVSELVEFVETGVKGVAFNLEEDNVGIIILGEYKDIKEGHTVRRLKRIIEVPVGEELLGRVVNPLGEPLDGKGPINAKNFRPIEIKAPGVIYRKPVDTPLQTGIKAIDSMIPIGRGQRELIIGDRQTGKTAIAIDTIINQKGQGVYCIYVAIGQKKSAIARIIDKLRQYGAMEYTTVVVASASDPASLQYIAPYAGCAMGEYFAYSGRDALVVYDDLSKHAVAYRQLSLLMRRPPGREAYPGDIFYLHSRLLERAVRLNDKLGGGSLTALPIVETQANDISAYIPTNVISITDGQIYLEPGLFYAGQRPAINVGLSVSRVGGSAQIKAMKQVAGMLRIDLAQYRELETFAQFATELDPATRAQIIRGQRLMELLKQEQYSPMPVEEQVVVLFAGVRGYLDDLPVEEVRRFEKEFLRFMHEKHQDILDDIKTKKELTSETEEKLKKAIEEFKTTFRV
protein production: not failed

MLIFKIFRRSEWDDFRRAGATAGAPVDLADGYIHFSTAAQVAETAAKHFTAESDLVLVAIDPDRAGPDLKWEPSRGEQLFPHLYRRLTLDDVVWDKSLPLGATGHIFPEGLWLEHHHHHH
protein production: not failed

MSTDLAEQPFKFDDVFMQYYPCIYNFIRWLIQDEDCAQDLAQETFLRAFVNLGTRSEHNLSPWLHTIARNLCHDYWRKNKRRGGRELLLQDAFECEDESSKPLAAIENKETAKQIYKILNLLKSEQRTALLLREIEGLSYDDAARVMGISVSAYTSLLNRARNKFIKLIMTPYTKINKGLFTPKEYTVLYRWFGIDAWPEDPEQEIVHKAKHYFDNSALSFDEFRNSLYPFHLDQAILNRVLNKDPQIIGDFGSGTGQFTLKAASSVNLEKTYAFDISPKMVDFSQQRFKREGLRHIQCLPADLNSIPLESETLDIGYCLVVLHHLYDPGKAIKEMTRTLKPGGQLIIGDFGSHNYNLFTKNNKDLWSGFSPDQMTKWFNEAGLENIDIREEKDCIFKSTTQAGELVKIPLLMSSGIKRA
protein production: failed

MPPFLPLQVIKGVGPKRAVILAEAGIRSIADLYDCFPRRYLDRTTIKKIGALRDGETVTVVGSVTGTRFEGGGRGGSRFKAQITDGSGVLELTWFRGVHYFSKTIRSGELVAAHGRVTFFGRTPGMQHPDFDKLGGDDESGDGQRDDELYKTGAIIPIYPTTEAMKQAGLNSAALRRIVHRAFREHPLRITEYLSPEIIAANNLMPIGEAYRQLHFPDSAEQLERARYRMKWSELFFAQLFFALRRTEERRHLTSVRFERSGEKTASLHERLPFTMTSAQKQAVREIYHDLKSGRQMNRLLQGDVGSGKTLVAQFAMTLAVDNGLQAAFMAPTEILAFQHYAGLKNSLEPLGIRVALLTGRQKKKEREEKLARLERGEIDIAVGTHAIIEAGVQFRRLGLVIIDEQHRFGVLQRKALQEKAENPHVLLMTATPIPRTLTMGIYGDLDVSIIAEMPAGRKPIQTRLCCEAEKPELYRLLRKQIAEGRQAYIVYPLVEESEKIDLKAATESYEQLRREVFPELRLGLIHGQLPAAEKEAVMAEFRSGRLDILVGTTVIEVGVDVPNATIMVIEHAERFGISQLHQLRGRVGRGEHASSCFLVYTKLTGDAKDRLQAMAATGDGFRLSEIDLQIRGAGNMLGREQSGAASGLRIADLLTDGDIMRAARAAAFELIRRDETLTHPENALIRDYYMTHFRKRISLADVG
protein production: failed

MVPIPNGVSAKETHKLMGRGIAAFALLLLLQVSGSIVTQSGLAAPWWNAMFLWLLLTGIGCFSVASIRGRGLRWTSSILSLLVLAGLLLWPAAVPTTVPVDIGTPWLWAMINVGAAWSAFAFGTLPGCVYTVVIGSVFAVVRTLPQSGSASPSTAIQDASFSTVLGIIICLTIGILRQASERVDTAAENAINRYREAAAETALSNERTRVDGLLHDSVMSALLTASRSGSSLERLSSAELARSALARLGEHEIKQTDATTVSVSELASRIRFTVQDDGDTPTVTVTGEGSTSLLLSGQVVRALFEASTEAVANAVRHSNATRCEVRVLGQDPKGIARVVVSVKDNGDGFRQELVSDRRLGIKVSIIGRMRTIGGTADISSHPGKGTEVILTWAGEA
protein production: failed

VIGTWDCDTCLVQNKPEAIKCVACETPKPGTCVKRALTLT
protein production: not failed
